Data reported in paper PMC7341526.

Target: vitreous collagen fibrils (rabbit), in the collagen-containing pellet (rabbit (endogenous in rabbit vitreous))
Assay: co-sedimentation; vitreous of uninjected rabbit eyes digested with hyaluronan lyase (24 h, 37 °C), centrifuged 13 000g 30 min; opticin in supernatant and collagen-containing pellet quantified by SRM-MS

- percent of opticin in the collagen-containing pellet: 6%
Substance: endogenous rabbit opticin (natural protein)
